Laboratory results from patent publication US20210205411A1, “CCR5 INHIBITOR FOR USE IN TREATING CANCER” (ORION BIOTECHNOLOGY SWITZERLAND SÀRL, priority 2018, published 2021).

Key:
recombinant human CCR3 = target: T1, recombinant human CCR3 (Homo sapiens, UniProt P51677); assay: GTPγ35S functional assay, inhibition testing, CCR3; format: biochemical; details: CHO-K1 membrane extracts; reference agonist at EC80; FIG. 3B
T1 construct: host or cells: CHO-K1 cells (membrane extracts)
T1 sequence (P51677 1-355): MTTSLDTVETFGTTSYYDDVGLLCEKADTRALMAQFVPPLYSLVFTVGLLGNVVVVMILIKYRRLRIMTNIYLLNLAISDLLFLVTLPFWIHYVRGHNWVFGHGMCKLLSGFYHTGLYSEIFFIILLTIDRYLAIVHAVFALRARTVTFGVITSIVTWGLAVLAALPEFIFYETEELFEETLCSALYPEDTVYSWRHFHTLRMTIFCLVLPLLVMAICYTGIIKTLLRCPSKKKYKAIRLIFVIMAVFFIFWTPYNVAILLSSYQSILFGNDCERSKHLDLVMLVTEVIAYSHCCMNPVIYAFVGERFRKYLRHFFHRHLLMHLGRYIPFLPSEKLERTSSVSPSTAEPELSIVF
Experimental: (§1) Assay buffer was 20 mM HEPES pH 7.4; 200mM NaCl, 10 μg/ml saponin, MgCl2 at optimized concentration for the specific receptor, 0.1% BSA. CHO-K1 cells expressing recombinant human receptor membrane extracts were thawed on ice, diluted in assay buffer and kept on ice. GDP was diluted in assay buffer to give optimized concentration for the specific receptor. Beads were PVT-WGA (PerkinElmer, RPNQ001), diluted in assay buffer at a concentration optimized for the specific receptor. GTPγ^35S (PerkinElmer NEG030X) was diluted in assay buffer to give 0.1 nM.
(§2) For inhibition testing, membranes were mixed with GDP and incubated for at least 15 min on ice. In parallel, GTPγ^35S was mixed with the beads just before starting the reaction. The following reagents were successively added in the wells of an Optiplate (PerkinElmer): 50 μL of test or reference ligand, 20 μL of the membranes:GDP mix, 10 μL of reference agonist at historical EC80 and 20 μL of the GTPγ^35S:beads mix.
(§3) The plates were covered with a top seal, mixed on an orbital shaker for 2 min, and then incubated for 1 hour at room temperature. Then the plates were centrifuged for 10 min at 2000 rpm, incubated at room temperature for 1 hour and counted for 1 min/well with a PerkinElmer TopCount reader. […]
(§4) Dose-response data were analyzed with XLfit (IDBS) software using nonlinear regression applied to a sigmoidal dose-response model.

HIV-1BaL = assay: HIV-1 replication assay in peripheral blood mononuclear cells; format: cell-based; details: PBMC from a panel of US donors, FIG. 2
Experimental: For each donor, each compound was evaluated at 9 concentrations in triplicate. Each point represents log IC50 for an individual donor.

[1] = tested on: CT-26 colorectal cancer cell line; assay: CT-26 colorectal cancer animal model; format: in vivo, BALB/c mice; details: for tumor growth / mean tumor volume: intraperitoneal
Text: In one experiment, BALB/c mice were inoculated subcutaneously with the CT-26 colorectal cancer cell line. […] Treatment was given daily or every third day.
In another experiment, BALB/c mice were inoculated subcutaneously with the CT-26 colorectal cancer cell line. […] 5P12-RANTES treatment was given five times a week.

[2] = Preclinical single dose intravenous infusion, cynomolgus macaques; format: in vivo; details: 20 mg/kg
Text: (§5) These findings indicate that this N-terminally modified RANTES variant and its structurally related analogs have enhanced efficacy compared to MVC which is known to be therapeutically effective against several types of cancer, with very little side effects.

recombinant human CCR1 = target: T2, recombinant human CCR1 (Homo sapiens, UniProt P32246); assay: GTPγ35S functional assay, inhibition testing, CCR1; format: biochemical; details: FIG. 3A
T2 construct: host or cells: CHO-K1 cells (membrane extracts)
T2 sequence (P32246 1-355): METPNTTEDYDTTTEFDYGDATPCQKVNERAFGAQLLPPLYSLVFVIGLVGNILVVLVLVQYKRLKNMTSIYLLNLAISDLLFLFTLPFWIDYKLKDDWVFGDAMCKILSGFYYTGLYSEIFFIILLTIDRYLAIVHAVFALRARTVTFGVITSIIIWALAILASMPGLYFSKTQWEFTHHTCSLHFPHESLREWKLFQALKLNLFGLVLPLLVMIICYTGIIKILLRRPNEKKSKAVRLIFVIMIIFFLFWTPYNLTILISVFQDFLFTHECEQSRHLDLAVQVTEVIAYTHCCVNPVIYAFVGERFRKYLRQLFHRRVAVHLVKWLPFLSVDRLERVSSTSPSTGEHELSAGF
Experimental: as §1, §2, §3, §4

[3] = Preclinical single dose intravenous infusion, rats; format: in vivo; details: 20 mg/kg
Text: as §5

human CCR5 [4] = target: T3, human CCR5 (Homo sapiens, UniProt P51681); assay: CCR5 signaling inhibition, aequorin calcium sensor in CHO cells, agonist human MIP-1β/CCL4; details: read-out: IC50, inhibition of CCR5 signaling (FIG. 1C), CHO cells expressing human CCR5, agonist MIP-1β/CCL4, n=2
T3 sequence (P51681 whole entry): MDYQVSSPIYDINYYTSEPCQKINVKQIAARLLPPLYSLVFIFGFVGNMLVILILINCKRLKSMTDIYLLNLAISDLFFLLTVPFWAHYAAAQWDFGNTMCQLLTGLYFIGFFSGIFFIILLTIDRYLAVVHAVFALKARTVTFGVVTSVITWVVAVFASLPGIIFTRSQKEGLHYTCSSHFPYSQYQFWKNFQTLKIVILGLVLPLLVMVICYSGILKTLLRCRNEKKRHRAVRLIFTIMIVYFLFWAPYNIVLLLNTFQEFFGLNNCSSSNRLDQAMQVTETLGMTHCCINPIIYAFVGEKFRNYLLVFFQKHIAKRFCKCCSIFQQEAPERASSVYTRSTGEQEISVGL
Text: The signaling activity measured in the cells at each inhibitor concentration is expressed as a percentage of the signal elicited by the agonist in the absence of inhibitor (n=2) (FIGS. 1A, 1B and 1C).

human CCR5 [5] = target: T3, human CCR5; assay: cell-based or functional assay

B1: 5P12-RANTES: N-terminally modified RANTES variant (SEQ ID NO: 70), CCR5 inhibitor (protein)
chain: QGPPLMATQSCCFAYIARPLPRAHIKEYFYTSGKCSNPAVVFVTRKNRQVCANPEKKWVREYINSLEMS
modifications: ends and bridges not checked
In the case of B1, the “antagonism towards CCR3” value (recombinant human CCR3) is reported as “no antagonism”, the “times more potent than MVC in inhibiting HIV-1 replication” value (HIV-1BaL) is reported as 10-30 times and the “adverse events during treatment” value ([1]; anti-CTLA-4 experiment, start ten days after inoculation) is reported as “No adverse events”. The “adverse events during treatment” value ([1]; anti-PD-1 experiment, start three days after inoculation) was “No significant adverse events”, the “tumor growth / mean tumor volume” value ([1]; start ten days after inoculation, five times a week, anti-CTLA-4 experiment, FIG. 4B) was “delayed tumor growth at multiple time-points” and the “tumor growth / mean tumor volume” value ([1]; start three days after inoculation, daily or every third day, anti-PD-1 experiment, FIG. 4A) was “statistically significant delayed tumor growth at multiple time-points”. For the same molecule, the adverse events [2] was “without any adverse events”, the “antagonism of CCR1” value (recombinant human CCR1; CHO-K1 membrane extracts, reference agonist at EC80) was “no antagonism” and the “potentiation of CCR1 signaling” value (recombinant human CCR1; at the highest concentrations) was “moderate level of potentiation”. For the same molecule, the adverse events [3] was “without any adverse events”.

B2: PRO-140 (antibody, INN chains, looked up, V domains shown)
VH: EVQLVESGGGLVKPGGSLRLSCAASGYTFSNYWIGWVRQAPGKGLEWIGDIYPGGNYIRNNEKFKDKTTLSADTSKNTAYLQMNSLKTEDTAVYYCGSSFGSNYVFAWFTYWGQGTLVTVSS
VL: DIVMTQSPLSLPVTPGEPASISCRSSQRLLSSYGHTYLHWYLQKPGQSPQLLIYEVSNRFSGVPDRFSGSGSGTDFTLKISRVEAEDVGVYYCSQSTHVPLTFGQGTKVEIK
With B2 the IC50 (human CCR5 [4]) was 5.6 nM and the IC50 of inhibition of CCL4-induced CCR5 signaling (aequorin calcium sensor, CHO cells), FIG. 1C (human CCR5 [5]) was 5.6 nM.
